Experimental findings from article PMC4253958 are described below.

For test [1], the target named is APPΔF616, N-terminally myc-tagged APP695 (human) (UniProt P05067).
Test [2] concerns the target APPΔS622, N-terminally myc-tagged APP695 (human) (UniProt P05067).
Test [3] has as its target APP-D8, N-terminally myc-tagged APP695 (human) (UniProt P05067).

On to “APPΔF616, N-terminally myc-tagged APP695 (from UniProt P05067-4 18-695) (natural protein)”, for which the S2 cell aggregation assay: clustered transfected cells, compared to APPwt expressing cells in test [1] was > 2 fold.
In the case of “APPΔS622, N-terminally myc-tagged APP695 (from UniProt P05067-4 18-695) (natural protein)”, in test [2], the S2 cell aggregation assay: clustered transfected cells, compared to APPwt expressing cells is > 2 fold.
In test [3], “APP-D8, N-terminally myc-tagged APP695 (from UniProt P05067-4 18-695) (natural protein)” came in with an S2 cell aggregation assay: clustered transfected cells, compared to APPwt expressing cells of 2 fold.
